Test results reported in patent US20200317768A1 (published 2020).
Changes are numbered by the printed parent chain.

T1: cynomolgus monkey FcγRIIa3 extracellular domain with C-terminal His-tag (cynomolgus monkey)
T1 construct: also called cyno FcgRIIa3; cynoFcγRIIa3
T1 chain: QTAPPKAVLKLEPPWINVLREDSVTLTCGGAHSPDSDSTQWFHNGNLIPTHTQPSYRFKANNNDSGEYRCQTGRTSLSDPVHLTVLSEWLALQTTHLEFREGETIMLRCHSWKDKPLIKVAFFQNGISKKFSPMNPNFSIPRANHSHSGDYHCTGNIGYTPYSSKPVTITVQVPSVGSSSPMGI

T2: cynomolgus monkey FcγRIIIaS extracellular domain with C-terminal His-tag (cynomolgus monkey, UniProt Q8SPW2 21-206 at identity 1.00))
T2 construct: also called cyno FcgRIIIaS; cynoFcγRIIIaS
T2 chain: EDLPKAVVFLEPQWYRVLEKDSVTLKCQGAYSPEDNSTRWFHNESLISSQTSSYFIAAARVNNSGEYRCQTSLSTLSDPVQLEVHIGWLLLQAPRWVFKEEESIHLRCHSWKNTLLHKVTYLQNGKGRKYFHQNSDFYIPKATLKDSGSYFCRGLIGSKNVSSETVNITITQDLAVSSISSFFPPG

T3: cynomolgus monkey FcγRIIa1 extracellular domain with C-terminal His-tag (cynomolgus monkey)
T3 construct: also called cyno FcgRIIa1; cynoFcγRIIa1
T3 chain: T1 chain with T95P, A121T, S128A, P133H, N135D

T4: cynomolgus monkey FcγRIIa2 extracellular domain with C-terminal His-tag (cynomolgus monkey)
T4 construct: also called cyno FcgRIIa2; cynoFcγRIIa2
T4 chain: T1 chain with I127K, K130N, P133H, R142Q

T5: human FcγRIIaH extracellular domain with C-terminal His-tag (human, UniProt P12318 34-217)
T5 construct: also called human FcgRIIaH; FcγRIIa (type H)
T5 sequence: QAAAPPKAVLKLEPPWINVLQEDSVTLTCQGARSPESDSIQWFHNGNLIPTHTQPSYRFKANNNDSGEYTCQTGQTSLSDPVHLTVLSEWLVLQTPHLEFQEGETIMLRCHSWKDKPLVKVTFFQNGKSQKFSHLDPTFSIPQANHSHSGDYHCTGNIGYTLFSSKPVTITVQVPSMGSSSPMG

T6: cynomolgus monkey FcγRIIb extracellular domain with C-terminal His-tag (cynomolgus monkey)
T6 construct: also called cyno FcgRIIb; cynoFcγRIIb
T6 chain: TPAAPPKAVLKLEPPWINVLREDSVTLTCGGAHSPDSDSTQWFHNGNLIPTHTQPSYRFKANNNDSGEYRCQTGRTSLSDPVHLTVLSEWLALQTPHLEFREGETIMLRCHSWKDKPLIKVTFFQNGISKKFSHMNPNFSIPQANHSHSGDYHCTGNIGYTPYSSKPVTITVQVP

T7: human FcγRIIaR extracellular domain with C-terminal His-tag (human, UniProt P12318 34-217)
T7 construct: also called human FcgRIIaR; FcγRIIa (type R)
T7 chain: T5 sequence with H134R

B1: M103205H795-MY389/M103202L889-SK1 (antibody, human IgG1, kappa)
heavy: QVTLKESGPVLVKPTETLTLTCTVSGIDLSHDDISWVRQAPGKGLEWVGIISYAGSTYYASWAKGRLTISKDTSKNQVVLTMTNMDPVDTATYYCARGVPAYSHGGDLWGQGTLVTVSSASTKGPSVFPLAPSSKSTSGGTAALGCLVKDYFPEPVTVSWNSGALTSGVHTFPAVLQSSGLYSLSSVVTVPSSSLGTQTYICNVNHKPSNTKVDKKVEPKSCDKTHTCPPCPAPELLTGPLVFLFPPKPKDTLMISRTPEVTCVVVDVSDEDPEVKFNWYVDGVEVHNAKTKPREEQYNSTYRVVSVLTVLHQDWLNGKEYKCKVSNKALPKPIEKTISKAKGQPREPQVYTLPPSREEMTKNQVSLTCLVKGFYPSDIAVEWESNGQPENNYKTTPPVLDSDGSFFLYSKLTVDKSRWQQGNVFSCSVMHEALHNHYTQKSLSLSP
light: DIVMTQSPATLSLSPGERATLSCTSSQSVYHANWLSWFQQKPGQPPKLLIYWASTLAYGVPSRFSGSGSGTDFTLTISSLQPEDAATYYCAGGYGGGRYAFGQGTKVEIKRTVAAPSVFIFPPSDEQLKSGTASVVCLLNNFYPREAKVQWKVDNALQSGNSQESVTEQDSKDSTYSLSSTLTLSKADYEKHKVYACEVTHQGLSSPVTKSFNRGEC
notes: Substitutions introduced into M103205H795-SG1, expressed with M103202L889-SK1 as light chain; EU numbering
B2: M103205H795-MY526/M103202L889-SK1 (antibody, human IgG1, kappa)
heavy: B1 heavy with A233T, L241V, Q297L
light: B1 light
notes: as for B1
B3: M103205H795-MY400/M103202L889-SK1 (antibody, human IgG1, kappa)
heavy: B1 heavy with L241S, P333E
light: B1 light
notes: as for B1
B4: M103205H795-MY516/M103202L889-SK1 (antibody, human IgG1, kappa)
heavy: B1 heavy with L241V, Q297L, S300L
light: B1 light
notes: as for B1
B5: M103205H795-MY522/M103202L889-SK1 (antibody, human IgG1, kappa)
heavy: B1 heavy with A233G, L241V
light: B1 light
notes: as for B1
B6: M103205H795-MY529/M103202L889-SK1 (antibody, human IgG1, kappa)
heavy: B1 heavy with L236W, L241S, Q297L
light: B1 light
notes: as for B1
B7: M103205H795-MY520/M103202L889-SK1 (antibody, human IgG1, kappa)
heavy: B1 heavy with P234D, L241V, Q297L
light: B1 light
notes: as for B1
B8: M103205H795-MY523/M103202L889-SK1 (antibody, human IgG1, kappa)
heavy: B1 heavy with A233G, L241V, Q297L
light: B1 light
notes: as for B1
B9: M103205H795-MY515/M103202L889-SK1 (antibody, human IgG1, kappa)
heavy: B1 heavy with L241S, Q297L, S300L
light: B1 light
notes: as for B1
B10: M103205H795-MY525/M103202L889-SK1 (antibody, human IgG1, kappa)
heavy: B1 heavy with A233T, L241V
light: B1 light
notes: as for B1
B11: M103205H795-MY521/M103202L889-SK1 (antibody, human IgG1, kappa)
heavy: B1 heavy with P234D, L241S, Q297L
light: B1 light
notes: as for B1
B12: M103205H795-MY528/M103202L889-SK1 (antibody, human IgG1, kappa)
heavy: B1 heavy with L236W, L241S
light: B1 light
notes: as for B1
B13: M103205H795-MY514/M103202L889-SK1 (antibody, human IgG1, kappa)
heavy: B1 heavy with L241V, S300L
light: B1 light
notes: as for B1
B14: M103205H795-MY527/M103202L889-SK1 (antibody, human IgG1, kappa)
heavy: B1 heavy with A233T, L241S, Q297L
light: B1 light
notes: as for B1
B15: M103205H795-MY392/M103202L889-SK1 (antibody, human IgG1, kappa)
heavy: B1 heavy with L241S, S300L
light: B1 light
notes: as for B1
B16: M103205H795-MY524/M103202L889-SK1 (antibody, human IgG1, kappa)
heavy: B1 heavy with A233G, L241S, Q297L
light: B1 light
notes: as for B1

Molecular target: T1, cynomolgus monkey FcγRIIa3 …
Assay: SPR (BIACORE); KD of SG1 / KD of variant;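 further: relative to parent M103205H795-SG1 carrying the SG1 human heavy chain constant region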

| KD fold (SG1 = 1) [fold] | Binder |
| --- | --- |
| 12.1 | B1 |
| 13.1 | B2 |
| 4.5 | B3 |
| 21.5 | B4 |
| 18.3 | B5 |
| 5.3 | B6 |
| 8.3 | B7 |
| 15.5 | B8 |
| 5.9 | B9 |
| 15.5 | B10 |
| 3.9 | B11 |
| 5.3 | B12 |
| 11.3 | B13 |
| 5 | B14 |
| 4.4 | B15 |
| 6.3 | B16 |

Molecular target: T1, cynomolgus monkey FcγRIIa3 …
Assay: SPR (BIACORE), antibody captured, FcgR analyte

| Kd [nM] | Binder |
| --- | --- |
| 1400 | B1 |
| 1300 | B2 |
| 3800 | B3 |
| 790 | B4 |
| 930 | B5 |
| 3200 | B6 |
| 2100 | B7 |
| 1100 | B8 |
| 2900 | B9 |
| 1100 | B10 |
| 4400 | B11 |
| 3200 | B12 |
| 1500 | B13 |
| 3400 | B14 |
| 3900 | B15 |
| 2700 | B16 |

Molecular target: T2, cynomolgus monkey FcγRIIIaS …
Assay: SPR (BIACORE), antibody captured, FcgR analyte

| Kd [nM] | Binder |
| --- | --- |
| 1500 | B1 |
| 16000 | B2 |
| 24000 | B3 |
| 3000 | B4 |
| 1900 | B5 |
| 2200 | B6 |
| 2000 | B7 |
| 2100 | B8 |
| 3800 | B9 |
| 1400 | B10 |
| 2200 | B11 |
| 2000 | B12 |
| 4400 | B13 |
| 1500 | B14 |
| 4000 | B15 |
| 2000 | B16 |

Molecular target: T3, cynomolgus monkey FcγRIIa1 …
Assay: SPR (BIACORE), antibody captured, FcgR analyte

| Kd [nM] | Binder |
| --- | --- |
| 2000 | B1 |
| 13000 | B2 |
| 18000 | B3 |
| 150 | B4 |
| 1700 | B5 |
| 1000 | B6 |
| 2500 | B7 |
| 1400 | B8 |
| 140 | B9 |
| 1600 | B10 |
| 2500 | B11 |
| 1400 | B12 |
| 260 | B13 |
| 1100 | B14 |
| 300 | B15 |
| 1000 | B16 |

Molecular target: T4, cynomolgus monkey FcγRIIa2 …
Assay: SPR (BIACORE), antibody captured, FcgR analyte

| Kd [nM] | Binder |
| --- | --- |
| 16000 | B1 |
| 1200 | B2 |
| 2200 | B3 |
| 13000 | B4 |
| 1200 | B5 |
| 1400 | B6 |
| 2300 | B7 |
| 1300 | B8 |
| 1600 | B9 |
| 1100 | B10 |
| 33000 | B11 |
| 1500 | B12 |
| 1600 | B13 |
| 1300 | B14 |
| 2300 | B15 |
| 11000 | B16 |

These binders were tested against T5, human FcγRIIaH extracellular domain … (assay: SPR (BIACORE), antibody captured, FcgR analyte).

| Kd [nM] | Binder |
| --- | --- |
| 270 | B1 |
| 170 | B2 |
| 420 | B3 |
| 220 | B4 |
| 240 | B5 |
| 230 | B6 |
| 490 | B7 |
| 190 | B8 |
| 220 | B9 |
| 210 | B10 |
| 390 | B11 |
| 390 | B12 |
| 350 | B13 |
| 110 | B14 |
| 430 | B15 |
| 110 | B16 |

Molecular target: T6, cynomolgus monkey FcγRIIb extracellular …
Assay: SPR (BIACORE), antibody captured, FcgR analyte

| Kd [nM] | Binder |
| --- | --- |
| 700 | B1 |
| 450 | B2 |
| 630 | B3 |
| 450 | B4 |
| 530 | B5 |
| 390 | B6 |
| 960 | B7 |
| 430 | B8 |
| 390 | B9 |
| 510 | B10 |
| 800 | B11 |
| 410 | B12 |
| 760 | B13 |
| 340 | B14 |
| 700 | B15 |
| 310 | B16 |

Molecular target: T7, human FcγRIIaR extracellular domain …
Assay: SPR (BIACORE), antibody captured, FcgR analyte

| Kd [nM] | Binder |
| --- | --- |
| 190 | B1 |
| 210 | B2 |
| 740 | B3 |
| 85 | B4 |
| 170 | B5 |
| 530 | B6 |
| 340 | B7 |
| 210 | B8 |
| 260 | B9 |
| 160 | B10 |
| 300 | B11 |
| 360 | B12 |
| 160 | B13 |
| 290 | B14 |
| 410 | B15 |
| 280 | B16 |
